According to FireProtDB:
“And” between values parts separate entries of the source, which are not always exact repeats. Identical values can stand only once.

Conditions: whole UniProt chain shown
[1] = Thermus thermophilus (strain ATCC 27634 / DSM 579 / HB8), pH 7.5, 25 °C, GdnHCl, Fluorescence, tris-HCl 20 mM, reversible: yes
[2] = Sus scrofa, pH 6.5, 20 °C, GdnHCl, Fluorescence, MES-NaOH 20 mM, NaCl 100 mM, reversible: yes
[3] = Thermus thermophilus, pH 7, 25 °C, GdnHCl, CD, Potassium phosphate 20 mM, potassium chloride 50 mM
[4] = Streptomyces tendae, pH 2, Thermal, DSC, Sodium phosphate 10 mM, Na2SO4 10 mM, reversible: yes
[5] = Streptomyces tendae, pH 5, 25 °C, Thermal, DSC, Sodium phosphate 10 mM, Na2SO4 10 mM, reversible: yes
[6] = Streptomyces tendae, pH 7, Thermal, DSC, Sodium phosphate 10 mM, Na2SO4 10 mM, reversible: yes
[7] = Vibrio harveyi, pH 7, 18 °C, Urea, CD, phosphate 50 mM, reversible: yes
[8] = Thermus thermophilus (strain ATCC 27634 / DSM 579 / HB8), pH 7.4, 29 °C, Thermal, CD, Potassium phosphate 50 mM, reversible: Yes
[9] = Thermus thermophilus (strain ATCC 27634 / DSM 579 / HB8), pH 7.4, 35 °C, Thermal, CD, Potassium phosphate 50 mM, reversible: Yes
[10] = Thermus thermophilus (strain ATCC 27634 / DSM 579 / HB8), pH 7.4, Thermal, absorbance, Potassium buffer

B1: Triosephosphate isomerase, glycosomal wild type, P04789 (protein)
chain: MSKPQPIAAANWKCNGSQQSLSELIDLFNSTSINHDVQCVVASTFVHLAMTKERLSHPKFVIAAQNAIAKSGAFTGEVSLPILKDFGVNWIVLGHSERRAYYGETNEIVADKVAAAVASGFMVIACIGETLQERESGRTAVVVLTQIAAIAKKLKKADWAKVVIAYEPVWAIGTGKVATPQQAQEAHALIRSWVSSKIGADVAGELRILYGGSVNGKNARTLYQQRDVNGFLVGGASLKPEFVDIIKATQ
Tm (Trypanosoma brucei brucei, pH 7, Thermal, CD, 3-(N-morpholino)propanesulfonic acid/dithiothreitol 20 mM/0.02 mM, EDTA 0.02 mM): 52.2 °C | Tm (Trypanosoma brucei brucei, pH 7.4, Thermal, CD, MOPS 20 mM, EDTA 1 mM, reversible: no): 51.4 °C | Tm (Trypanosoma brucei brucei, pH 7.5, Thermal, CD, TEA 0.9 mM, NaCl 1.2 mM): 44 °C and 48 °C

B2: Inorganic pyrophosphatase wild type, P50308 (protein)
chain: MKLSPGKNAPDVVNVLVEIPQGSNIKYEYDDEEGVIKVDRVLYTSMNYPFNYGFIPGTLEEDGDPLDVLVITNYQLYPGSVIEVRPIGILYMKDEEGEDAKIVAVPKDKTDPSFSNIKDINDLPQATKNKIVHFFEHYKELEPGKYVKISGWGSATEAKNRIQLAIKRVSGGQ
Tm (Sulfolobus acidocaldarius (strain ATCC 33909 / DSM 639 / JCM 8929 / NBRC 15157 / NCIMB 11770), pH 7, Thermal, CD, HEPES 20 mM, MgCl2 5 mM): 98 °C | Tm (Sulfolobus acidocaldarius (strain ATCC 33909 / DSM 639 / JCM 8929 / NBRC 15157 / NCIMB 11770), pH 7, Thermal, CD, HEPES 20 mM): 89 °C

B3: Protein GrpE wild type, Q56236 (protein)
chain: MEERNHENTLEKDLEAVGQEAQALEERLKAAEEELKGLKDKYLRLLADFDNYRKRMEEELKAREREGVLKALRALLPVLDDLDRALEFAEASPESIRQGVRAIRDGFFRILAGLGVEEVPGEGEAFDPRYHEAVGLLPGEPGKVAKVFQRGFRMGEALVRPARVAVGEEKREEADLE
unfolding free energy (Thermus thermophilus (strain ATCC 27634 / DSM 579 / HB8), pH 7.5, 25 °C, GdnHCl, CD, Tris-HCl 20 mM, KCl 100 mM, reversible: yes): 4.13 kcal/mol | Tm (Thermus thermophilus (strain ATCC 27634 / DSM 579 / HB8), pH 7.5, Thermal, DSC, Hepes-NaOH 20 mM, KCl 100 mM, reversible: yes): 106 °C

B4: Divalent-cation tolerance protein CutA wild type, Q7SIA8 (protein)
chain: MEEVVLITVPSEEVARTIAKALVEERLAACVNIVPGLTSIYRWQGEVVEDQELLLLVKTTTHAFPKLKERVKALHPYTVPEIVALPIAEGNREYLDWLRENTG
Tm (Thermus thermophilus (strain ATCC 27634 / DSM 579 / HB8), pH 7, Thermal, DSC, potassium phosphate 50 mM, reversible: No): 113 °C

B5: Cytochrome P450 119 wild type, Q55080 (protein)
chain: MYDWFSEMRKKDPVYYDGNIWQVFSYRYTKEVLNNFSKFSSDLTGYHERLEDLRNGKIRFDIPTRYTMLTSDPPLHDELRSMSADIFSPQKLQTLETFIRETTRSLLDSIDPREDDIVKKLAVPLPIIVISKILGLPIEDKEKFKEWSDLVAFRLGKPGEIFELGKKYLELIGYVKDHLNSGTEVVSRVVNSNLSDIEKLGYIILLLIAGNETTTNLISNSVIDFTRFNLWQRIREENLYLKAIEEALRYSPPVMRTVRKTKERVKLGDQTIEEGEYVRVWIASANRDEEVFHDGEKFIPDRNPNPHLSFGSGIHLCLGAPLARLEARIAIEEFSKRFRHIEILDTEKVPNEVLNGYKRLVVRLKSNE
Tm (Sulfolobus acidocaldarius (strain ATCC 33909 / DSM 639 / JCM 8929 / NBRC 15157 / NCIMB 11770), pH 7.4, Thermal, absorbance, Tris): 91 °C

B6: Phosphoglycerate kinase wild type, P09403 (protein)
chain: MRTLLDLDPKGKRVLVRVDYNVPVQDGKVQDETRILESLPTLRHLLAGGASLVLLSHLGRPKGPDPKYSLAPVGEALRAHLPEARFAPFPPGSEEARREAEALRPGEVLLLENVRFEPGEEKNDPELSARYARLGEAFVLDAFGSAHRAHASVVGVARLLPAYAGFLMEKEVRALSRLLKDPERPYAVVLGGAKVSDKIGVIESLLPRIDRLLIGGAMAFTFLKALGGEVGRSLVEEDRLDLAKDLLGRAEALGVRVYLPEDVVAAERIEAGVETRVFPARAIPVPYMGLDIGPKTREAFARALEGARTVFWNGPMGVFEVPPFDEGTLAVGQAIAALEGAFTVVGGGDSVAAVNRLGLKERFGHVSTGGGASLEFLEKGTLPGLEVLEG
denaturant m value [1]: 2.7 kcal/mol/M | denaturant midpoint (higher = more stable) [1]: 2.34 M | unfolding free energy [1]: 6.32 kcal/mol

B7: Pilin wild type, Q9A1S2 (protein)
chain: MKLRHLLLTGAALTSFAATTVHGETVVNGAKLTVTKNLDLVNSNALIPNTDFTFKIEPDTTVNEDGNKFKGVALNTPMTKVTYTNSDKGGSNTKTAEFDFSEVTFEKPGVYYYKVTEEKIDKVPGVSYDTTSYTVQVHVLWNEEQQKPVATYIVGYKEGSKVPIQFKNSLDSTTLTVKKKVSGTGGDRSKDFNFGLTLKANQYYKASEKVMIEKTTKGGQAPVQTEASIDQLYHFTLKDGESIKVTNLPVGVDYVVTEDDYKSEKYTTNVEVSPQDGAVKNIAGNSTEQETSTDKDMTITFTNKKDFEVPTGVAMTVAPYIALGIVAVGGALYFVKKKNA
Tm (Streptococcus pyogenes serotype M1, pH 8, Thermal, CD, potassium phosphate buffer 10 mM, transition: 2): 85.1 °C

B8: Glutathione S-transferase omega-1 wild type, Q9N1F5 (protein)
chain: MSGGSARSLGKGSAPPGPVPEGLIRVYSMRFCPFAQRTLLVLNAKGIRHQVININLKNKPEWFFQKNPSGLVPVLENSQGQLIYESAITCEYLDEAYPGKKLLPDDPYEKACQKMVFELSSKVPPLLIRFIRRENEADCSGLKEELRKEFSKLEEVLTKKKTTYFGGSSLSMIDYLIWPWFERLEALELNECIDHTPKLKLWMAAMMKDPAVSALHIEPRDLRAFNDLYLQNSPEACDYGL
denaturant m value [2]: 11.1 kcal/mol/M | unfolding free energy [2]: 23.3 kcal/mol | denaturant m value (Sus scrofa, pH 6.5, 20 °C, Urea, Fluorescence, MES-NaOH 20 mM, NaCl 100 mM, reversible: yes): 4.6 kcal/mol/M

B9: Small ribosomal subunit protein bS6 wild type, P23370 (protein)
chain: MRRYEVNIVLNPNLDQSQLALEKEIIQRALENYGARVEKVEELGLRRLAYPIAKDPQGYFLWYQVEMPEDRVNDLARELRIRDNVRRVMVVKSQEPFLANA
denaturant m value [3]: 2.5 kcal/mol/M | unfolding free energy [3]: 8.5 kcal/mol

B10: Alpha-amylase inhibitor HOE-467A wild type, P01092 (protein)
chain: MRVRALRLAALVGAGAALALSPLAAGPASADTTVSEPAPSCVTLYQSWRYSQADNGCAQTVTVKVVYEDDTEGLCYAVAPGQITTVGDGYIGSHGHARYLARCL
Tm [4]: 68.3 °C | heat capacity change of unfolding [4]: 0.69 kcal/mol/K | unfolding enthalpy (calorimetric) [4]: 56.4 kcal/mol | heat capacity change of unfolding [5]: 0.69 kcal/mol/K | unfolding enthalpy (calorimetric) [5]: 26.3 kcal/mol | unfolding free energy [5]: 6.7 kcal/mol | Tm [6]: 81.6 °C | heat capacity change of unfolding [6]: 0.69 kcal/mol/K | unfolding enthalpy (calorimetric) [6]: 65.6 kcal/mol

B11: Alkanal monooxygenase alpha chain wild type, P07740 (protein)
chain: MKFGNFLLTYQPPELSQTEVMKRLVNLGKASEGCGFDTVWLLEHHFTEFGLLGNPYVAAAHLLGATETLNVGTAAIVLPTAHPVRQAEDVNLLDQMSKGRFRFGICRGLYDKDFRVFGTDMDNSRALMDCWYDLMKEGFNEGYIAADNEHIKFPKIQLNPSAYTQGGAPVYVVAESASTTEWAAERGLPMILSWIINTHEKKAQLDLYNEVATEHGYDVTKIDHCLSYITSVDHDSNRAKDICRNFLGHWYDSYVNATKIFDDSDQTKGYDFNKGQWRDFVLKGHKDTNRRIDYSYEINPVGTPEECIAIIQQDIDATGIDNICCGFEANGSEEEIIASMKLFQSDVMPYLKEKQ
denaturant m value [7]: 2.26 kcal/mol/M and 2.18 kcal/mol/M | unfolding free energy [7]: 2.36 kcal/mol and 6.04 kcal/mol | denaturant m value (Vibrio harveyi, pH 7, 18 °C, Urea, Fluorescence, NaH2PO4-K2HPO4 50 mM, transition: 3, reversible: yes): 2.38 kcal/mol/M and 3.99 kcal/mol/M | denaturant m value (Vibrio harveyi, pH 7, 18 °C, Urea, Fluorescence, phosphate 50 mM, reversible: yes): 2.47 kcal/mol/M

B12: Streptogrisin-B wild type, P00777 (protein)
chain: MRIKRTSNRSNAARRVRTTAVLAGLAAVAALAVPTANAETPRTFSANQLTAASDAVLGADIAGTAWNIDPQSKRLVVTVDSTVSKAEINQIKKSAGANADALRIERTPGKFTKLISGGDAIYSSTGRCSLGFNVRSGSTYYFLTAGHCTDGATTWWANSARTTVLGTTSGSSFPNNDYGIVRYTNTTIPKDGTVGGQDITSAANATVGMAVTRRGSTTGTHSGSVTALNATVNYGGGDVVYGMIRTNVCAEPGDSGGPLYSGTRAIGLTSGGSGNCSSGGTTFFQPVTEALSAYGVSVY
unfolding free energy (Streptomyces griseus, pH 5, 0 °C, GdnHCl, Fluorescence, potassium acetate 10 mM): 0.71 kcal/mol

B13: wild type, Q53W59 (protein)
chain: MKRLSLREAWPYLKDLQQDPLAVLLEWGRAHPRLFLPLPRFPLALIFDPEGVEGALLAEGTTKATFQYRALSRLTGRGLLTDWGKSWKEARKALKDPFLPKSVRGYREAMEEEAWAFFGEWRGEERDLDHEMLALSLRLLGRALFGKPLSPSLAEHALKALDRIMAQTRSPLALLDLAAEARFRKDRGALYREAEALIVHPPLSHLPRERALSEAVTLLVAGHETVASALTWSFLLLSHRPDWQKRVAESEEAALAAFQEALRLYPPAWILTRRLERPLLLGEDRLPQGTTLVLSPYVTQRLYFPEGEAFQPERFLAERGTPSGRYFPFGLGQRLCLGRDFALLEGPIVLRAFFRRFRLDPLPFPRVLAQVTLRPEGGLPARPREGVRA
heat capacity change of unfolding [8]: 1.15 kcal/mol/K | unfolding enthalpy (van 't Hoff) [8]: 71 kcal/mol | unfolding free energy [8]: 5.74 kcal/mol | heat capacity change of unfolding [9]: 1.17 kcal/mol/K | unfolding enthalpy (van 't Hoff) [9]: 61.7 kcal/mol | unfolding free energy [9]: 4.3 kcal/mol | Tm (Thermus thermophilus (strain ATCC 27634 / DSM 579 / HB8), pH 7.4, Thermal, CD, Potassium phosphate 50 mM, reversible: Yes): 87 °C and 83.7 °C | Tm [10]: 88 °C | heat capacity change of unfolding [10]: 1.14 kcal/mol/K | unfolding enthalpy (calorimetric) [10]: 71 kcal/mol
